These results are taken from the nanobody polyreactivity screen of Harvey et al. (2022).

A short description of the data set: yeast display, Sf9 membrane polyspecificity reagent, FACS + sequencing; frameworks hold sequencing errors. The method, boiled down: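 In a synthetic yeast display library (Saccharomyces cerevisiae BJ5465), nanobody expression was induced with galactose for 36–48 hours. FACS gates were set low and high (top ~1%) using anti-HA fluorescence for expression and streptavidin fluorescence for binding of the Sf9 membrane reagent. Each polyreactivity label is drawn from the gate of origin.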
On to “QFQLVESGGGLVQAGGSLRLSCAASGRIFVPNGMGWYRQAPGKERELVAVIDWSGGSTYYADSVKGRFTISRDNAKNTVYLQMNRLKPEDTAVYYCNAYPYDESDYWGQGTQVTVSS”, for which the “polyreactivity (PSR sort gate)” value was “low polyreactivity”.

With “QFQLVESGGGLVQAGGSLRLSCAASGRIFVRYAMGWYSQAPGKERQLVAAISKSGGSTYYADSVKGRYTISRDNAKNTVYLQMNSLNPEDTAVDYCAADYTGFFPDGSDVDFDYWGQGTQVTVSS”, the “polyreactivity (PSR sort gate)” value is given as “low polyreactivity”.

“QFQLVESGGGLVQAGGSLRLSCAASGRTFGRYTMGWYRPAPGKEREFVARINWNGGGTYYEDSVKGRFTISRDNAKNTVYLQMNSLKPEDTEVYYCNARKRGARFILGYDYSGQGTQVTVSS”: the “polyreactivity (PSR sort gate)” value is given as “low polyreactivity”.

Regarding “QFQLVESGGGLVQAGGSLRLSCAASGRTFGTYAMGWYRQAPGKEREVVAAISTRGGRTFYADSVKGRFTISRDNAKNTVYLQMNSLKPEDTAVYYCAARGTDPGHKYEYWGQGTQVTVSS”, the “polyreactivity (PSR sort gate)” value was “high polyreactivity”.

Regarding “QFQLVESGGGLVQAGGSLRLSCAASGRTFRSNTMGWYRQAPGKEREFVAVITYSAGSTYYADSVKGRFTISRDNAKNTVYLQMNSLKPEDTAVYYCAARVSWWPYDWYGYWGQGTQVTVSS”, the “polyreactivity (PSR sort gate)” value is “high polyreactivity”.

In the case of “QFQLVESGGGLVQAGGSLRLSCAASGRTFTSNAMGWYRQAPGKERELVAAIDDGGSTNYADSVKGRFTISRDNAKNTVYLQMNSLKPEDTAVYYCATGYWELRYDYWGQGTQVTVSS”, the “polyreactivity (PSR sort gate)” value is reported as “low polyreactivity”.

For “QFQLVESGGGLVQAGGSLRLSCAASGRTFYDNTMGWYRQAPGKERELVAAITRNGGSTYYADSVKGRFTISRDNAKNTVYLQMNSLKPEDTAVYYCAAEGPSHRLNVRLVKGSDSWGQGTQVTVSS”, the “polyreactivity (PSR sort gate)” value is “low polyreactivity”.

As to “QFQLVESGGGLVQAGGSLRLSCAASGRTISHNVMGWYRQAPGKEWELVAAISRNGGRTYYADSVKGRFTISRDNAKNTVYLQLNSLKTEDTAVYYCAAEAYPEYYYWGLGTQVTVSS”, the “polyreactivity (PSR sort gate)” value is listed as “high polyreactivity”.

As for “QFQLVESGGGLVQAGGSLRLSCAASGRTLSSYDMGWYRQAPGKERELVAAISRGGSTYYADSVKGRFTISRDNAKNTVYLQMNSLKPEDTAVYYCAASFYGGYWGYDYWGQGTQVTVSS”, the “polyreactivity (PSR sort gate)” value was “high polyreactivity”.

With “QFQLVESGGGLVQAGGSLRLSCAASGSIFGYYDMGWYRQAPGKERELVAAISWSGDTTYYADSVKGRFTISRDNAKNTVDLQMNILTPEDTAVYYCSAEFYDWLGGMGYWGQGTQVNVSS”, the “polyreactivity (PSR sort gate)” value is “low polyreactivity”.

With “QFQLVESGGGLVQAGGSLRLSCAASGSIFPNYAMGWYRQAPGKDRELVAVITQRGGRTYYADSVKGRFTISRDNAKNTVYLQMNSLKPEDTAVYYCAASYRGVPEYDSWGQGTQVTVSS”, the “polyreactivity (PSR sort gate)” value is given as “low polyreactivity”.

Consider “QFQLVESGGGLVQAGGSLRLSCAASGSIFRGTAMGWYRQAPGKERELVAAINKSGGSTYYADSVKGRFTISRDNAKNTVYLQMNSLKPEDTAVYYCAARGYFWSSYKYDYWGQGTEVTVSS”, for which the “polyreactivity (PSR sort gate)” value is listed as “high polyreactivity”.

For the sequence “QFQLVESGGGLVQAGGSLRLSCAASGSIFSVYTKGRYRQAPGKERELVAAISTGGGSTYYADSVKGRFTISRDNAKNTVYLQMNSLKPEDTALYYCATDYGWAPSYWYDSCGQGTQVTVSS”, the “polyreactivity (PSR sort gate)” value is recorded as “low polyreactivity”.

Consider “QFQLVESGGGLVQAGGSLRLSCAASGSIFSYYAMGWYRQAPGKERELVAGITWSGGRTYYADSVKGRFTISRDNAKNTVYLQMNSLKPEDTAVYYCAAAVKRALDYWGQGTQVTVSS”, for which the “polyreactivity (PSR sort gate)” value was “high polyreactivity”.

Take “QFQLVESGGGLVQAGGSLRLSCAASGSIFTLYDMGWYRQAPGNERELVAAISSGGGSTYYADSVKGRFTISRDNAKNTVYLQMNSLKPEDTAVYYCAARNRRAKYGDWGQGTQVTVSS”: the “polyreactivity (PSR sort gate)” value is given as “high polyreactivity”.

For “QFQLVESGGGLVQAGGSLRLSCAASGSIFVTNAMGWYRQAPGKERELVAAISSGGNTNYADSVKGRFTISRDNAKNTVYLQMNSLKPEDTAVYYCAKDPDKVDFVDMDYWGQGTQVTVSS”, the “polyreactivity (PSR sort gate)” value is reported as “low polyreactivity”.

For “QFQLVESGGGLVQAGGSLRLSCAASGSIFYRYAMGSDRQAPGKERELVAAISTGGGSTKYADSVKGRFTISRHNAKNTVYLQMNSLKPEDTAVYYCAASRAVTQYSGGGYGGQGTQVTVSS”, the “polyreactivity (PSR sort gate)” value is “high polyreactivity”.

As for “QFQLVESGGGLVQAGGSLRLSCAASGSIFYYNAMGCYRQAPGKEREVVAAISWSGGSTYYADSVKGRFTISRDNAKNTVYLQMNSLKPEDTAVYYCNAVGWYTYFYGSRKYNSWGQGTQVTVSS”, the “polyreactivity (PSR sort gate)” value was “low polyreactivity”.

Consider “QFQLVESGGGLVQAGGSLRLSCAASGSILVPNDMGWYRQAPGKEREFVAAITESDGSTYYADSVKGRFTISRDNAKNTVYLQMNSLKPEDTAVYYCASDSTGVTFVHFDYWGQGTQVTVSS”, for which the “polyreactivity (PSR sort gate)” value is “low polyreactivity”.

Turning to “QFQLVESGGGLVQAGGSLRLSCAASGSTFDPNAMGGYRQAPGKERELVASITSRGGSTYYADSVKGRFTISRDNAKNTVYLQMNSLKPEDTAVYYCAAVGGATYSWNGYSWYPWHNYWGQGTQVTVSS”, the “polyreactivity (PSR sort gate)” value is on record as “low polyreactivity”.

Regarding “QFQLVESGGGLVQAGGSLRLSCAASGSTFGTYAMGWYRQAPGKERELVAAISSGGSTYYADSVKGRFTISRDNAKNTVYLQMNSLKPEDTAVYYCAAGYYWYVWGFGYWGQGTQVTVSS”, the “polyreactivity (PSR sort gate)” value is listed as “low polyreactivity”.

Regarding “QFQLVESGGGLVQAGGSLRLSCAASGSTFSNYAMGWYRQAPGKERELVAAISSRGGSTYYADSVKGRFTISRDHAKNTVNLQMISLKPEDTAVYYCATYYVYKLYYWGQGTQVTVSS”, the “polyreactivity (PSR sort gate)” value is listed as “high polyreactivity”.

Regarding “QFQLVESGGGLVQAGGSLRLSCAASGSTFWTNAMGWYRQAPGKERELVAVISRGGSTNYADSVKGRFTISRDNEKNTVYLQMNSLKPEDTAVFYCAAASYLYGRYYYWGQGTQVTVSS”, the “polyreactivity (PSR sort gate)” value is on record as “high polyreactivity”.

As to “QFQLVESGGGLVQAGGSLRLSCAATGSIFHYYAMGWYRHAPGKERELVAAINSSGGSRSYYADSVKGRFTISRDNAKNTVFLQMNSLKPVDTAVYYCAAEYRVVWRAYDYWGKGTQVTVSS”, the “polyreactivity (PSR sort gate)” value is given as “low polyreactivity”.

For the sequence “QFQLVESGGGLVQAGGSLRLSCADSGIIFRDNAMGWYRQAPGKERELVATIRRRGGGTYYADSVKGRFTISRDNAKNTVYLQMNSLKPEDSAVYYCAARVIKSSHDYDYWGQGTQVTVSS”, the “polyreactivity (PSR sort gate)” value was “low polyreactivity”.

On to “QFQLVESGGGLVQAGGSLRLSCADSGSIFLLYVMGWYRQAPGKERELVAAISSGGSTNYADSVKGRFTISRDNAKNTVYLQMNSLKPEDTAVYYCNAVAVPQGVKLYDYWGQGTQVTVSS”, for which the “polyreactivity (PSR sort gate)” value is on record as “low polyreactivity”.

Regarding “QFQLVESGGGLVQAGGSLRLSCADSGSTFFNNAMGWYRHAPGKERELVAAITSSGGSTYYADSVKGRFSISRDNAKNTVYLQMNSLKPEDTAVYYCNKKSALYRRYDYWGQGTQVTVSS”, the “polyreactivity (PSR sort gate)” value is recorded as “low polyreactivity”.

Regarding “QFQLVESGGGLVQAGGSLRLSCASSGSTFGYNAMGWYRQAPGKESELVAAISYSGGSTSYADSVKGRFTISRDNAKNTVYLQMNSLKPEDSAVYYCASDSYSQYSSQALEGFGYWGQGTQVTVSS”, the “polyreactivity (PSR sort gate)” value is recorded as “low polyreactivity”.

Consider “QFQLVESGGGLVQAGGSLRLSSAASGFTFVYYVMGWYRQAPGKERELVAAINAGGGSTYYADSVKGRITISRDNAKNTVYLQMYSLKPEDTAVYSFNARVRVRWGRNWSSYYYWGQGTQVTVSS”, for which the “polyreactivity (PSR sort gate)” value is given as “high polyreactivity”.

“QFQLVESGGGLVQAGGSLRLSYAASGRTFSSYAMGWYRQAPGKERELVAAITKRGGNTYYADSVKGRFTISRDNAKNTVYLQMNSLKPEDTAVYYCAAGWERFRNYNYWGQGTQVTVSS”: the “polyreactivity (PSR sort gate)” value is on record as “high polyreactivity”.

As for “QFQLVESGGGLVQAGGSLRLTCAASGNIFADYAMGWYRQAPGKERELVAAISRGGITSYADSVKGRFTISRDNAKNTVYLQMNSRKPEDTAVYYCATVRYDVYDSLGFGYWGQGTQVTVSS”, the “polyreactivity (PSR sort gate)” value is “low polyreactivity”.

Turning to “QFQLVESGGGLVQAGGSLRLTCAASVSTFSSYVMGWYRQAPGKDRELVAAISSIGGSTYYADSVKGRFTISRDNAKTNDYLQMNSLKPEDTAVYYCAAEPPGSTYEGGYWGQGTQVTVSS”, the “polyreactivity (PSR sort gate)” value is “low polyreactivity”.

Take “QFQLVESGGGLVQAGGSLRSSCAASGFIFREYAMGWYRQAPGKERELVAAISTSGGDTYYADSVKGRFTISRDNAKNTVYLQMNSLKPEDTAVYYCAAEYDGYWDSNRGNYWGQGTQVTVSS”: the “polyreactivity (PSR sort gate)” value is given as “low polyreactivity”.

Consider “QFQLVESGGGLVQAGGSLSLSCAASGSTFSFNARGSYRQAPGKERELVAAITSGGSTYYADSVKGRFTISRDNAKNTVYLQMNSLKPEDTAVYYCAAAWAYGFGTRRYYWGQGTQVTVSS”, for which the “polyreactivity (PSR sort gate)” value is “high polyreactivity”.

As to “QFQLVESGGGLVQAGGSLSLSCAASGSTFVWYAMGWYRPAPGKERELVAAINFGGTTYYADSVKGRFTISRDNAKNTVYLQMNSLKPEDNAVYYCATEYDYGYWYPDGWVIFDYWVQGTQVTVSS”, the “polyreactivity (PSR sort gate)” value is on record as “low polyreactivity”.

Consider “QFQLVESGGGLVQAVVSLRLSCAASGSIFDIYDMGWYRQAPGKETELDAAIRSGDRTHYADSVKGRFTISRDNAKITVYLQMNSLKPEDTAVYYCAADRYIYLNREHDYWGQGTQVTVSS”, for which the “polyreactivity (PSR sort gate)” value is “low polyreactivity”.

For the sequence “QFQLVESGGGLVQSGGSLRLSCAASGSTFGYYTMGWYRPAPGTERELVAAITWSGGSTYYADSVKGRFTISRDNAKNTVYLPMNSLKPEDTAVYYCAADDYWTPFGYWGQGTQVTVSS”, the “polyreactivity (PSR sort gate)” value is on record as “low polyreactivity”.

With “QFQLVESGGRLVQAGGSLRLSCAASGSIFYLNAIGSYRQAPGKERELVAAISRSGGRTYYADSVKGRFTISRDNAKNTVYLQMNSLIPEDTAVYYCAADVQAQGAYRGGYWGQGTQVTVSS”, the “polyreactivity (PSR sort gate)” value is “high polyreactivity”.

Turning to “QFQLVESGRGLVQAGGSLRLSCAASGSTFSANAMGWYRQAPGKERELVAAISRSGTRTYYADSVKGRFTISRDNAKNTVYLQMNSLKPEDTAVYYCAAYVYQYGYDYWGQGTQVTVSS”, the “polyreactivity (PSR sort gate)” value is reported as “high polyreactivity”.

As for “QFQLVESGVGLVQAGARLRLSSAASGFTIKYYAMGWYRQAPGKERELVATITRGGSTNYADSVKGRFTISRDNAKNTVYLQMNSLNPEDTAVYYCAKGYPYYYYDYDSWGQGTQVTVSS”, the “polyreactivity (PSR sort gate)” value is reported as “high polyreactivity”.

As to “QFQLVESGVVLVQAAASLRLSCAASGIIFQRNDMGWNRQAPGKETDLVANIRDGGITNADSVKGRFTISRDNAKNTVYLQMNCLKPEDTAVYYCARDDTSPGYGDQSSNAAYYYWGQGTQVTVSS”, the “polyreactivity (PSR sort gate)” value is “low polyreactivity”.
